Assay results reported in patent US20220125770A1, “COMBINATION THERAPY OF ALK-POSITIVE NEOPLASIA” (Academisch Medisch Centrum, priority 2019, published 2022).

Columns and labels:
[1] = system: MES-type neuroblastoma cells; test: Cell viability (MTT) assay, MES-type cells of isogenic cell line pairs; assay type: cell-based, human
Experimental: […] Seeding densities were optimized for each cell line so that the control, non-treated cells would reach 70-80% confluence by the end of the experiment. […] Metabolic activity was measured by 3-(4,5-dimethylthiazol-2-yl)-2,5-diphenyltetrazolium bromide (MTT) assay, according to the manufacturer's instructions with minor modifications. Sextuple or triplicate measurements were used for each experimental condition. Two-sided t-tests assuming equal variance were used to determine significance. Experiments were repeated at least twice.

[2] = system: ADRN-type neuroblastoma cells; test: Cell viability (MTT) assay, ADRN-type cells of isogenic cell line pairs; assay type: cell-based, human
Experimental: Cells were plated in 96-well plates, one day before the addition of Lorlatinib (HY-12215, MedChemExpress) and/or TRAIL (Peprotech) to the culture medium. Seeding densities were optimized for each cell line so that the control, non-treated cells would reach 70-80% confluence by the end of the experiment. […] Metabolic activity was measured by 3-(4,5-dimethylthiazol-2-yl)-2,5-diphenyltetrazolium bromide (MTT) assay, according to the manufacturer's instructions with minor modifications. Sextuple or triplicate measurements were used for each experimental condition. Two-sided t-tests assuming equal variance were used to determine significance. Experiments were repeated at least twice.

SH-SY5Y xenografts = test: SH-SY5Y xenograft tumour growth; assay type: in vivo, NMRI-Foxn1nu/nu mice; conditions: TRAIL 150 μg/day I.P. 4 weeks; Lorlatinib 5 mg/kg twice a day oral 6 weeks; or both
Experimental: For tumour growth assays, 5×10^6 SH-SY5Y cells were suspended in 200 μl of a 50% Matrigel (BD, 354234) solution in PBS and subcutaneously injected in NMRI-Foxn1nu/nu mice (NKI; Janvier). After tumour outgrowth to around 200-250 mm^3, mice were randomized to control or treatment groups. The control group received 150 μl PBS daily intraperitoneally (I.P.) for 4 weeks (day 1-day 28). The TRAIL group received 150 μg/day through I.P. for 4 weeks (day 1-day 28). The Lorlatinib group received 5 mg/kg twice a day through oral gavage for 6 weeks (day 1-day 42) and 4 weeks (day 29-day 56) of PBS (150 μl/day I.P.). The combination group received Lorlatinib twice a day for 6 weeks (day 1-day 42) and 4 weeks TRAIL (day 29-day 56). Tumour size was measured three times a week. Mice were sacrificed at the humane endpoint (tumor size >1500 mm^3), the tumours were isolated and divided in two parts. One tumour piece was fresh frozen in liquid nitrogen and RNA was isolated using Trizol reagent. The other tumour piece was fixed in 4% (w/v) buffered formaldehyde (Klinipath) and embedded in paraffin for histological analyses. In vivo experiments were conducted at the NKI therapeutical intervention unit after ethical approval from the animal experiments committee of the NKI was obtained (AvD:30100 2015 407 appendix 1; WP8156).

SH-EP2 cells (MES-type) = test: 3D spheroid co-culture of SK-N-AS-TRAIL cells with SH-EP2-GFP cells; assay type: cell-based, human; conditions: doxycycline-induced TRAIL expression, 48 hours, 3D model
Experimental: (§1) Spheroid assays were performed as described^28. A suspension of 10000 cells of 3:1 SKNAS-TRAIL:SH-EP2-GFP or 3:1 SKNAS-TRAIL:IMR32-GFP was added in triplicate to 96 well round bottom suspension plates. After 48 hours incubation with 0 or 300 ng/ml doxycycline bright-field and fluorescent images of the 3D cultures were taken.

SK-N-AS-TRAIL cells = test: Apoptosis of SK-N-AS-TRAIL cells after doxycycline-induced TRAIL expression in vitro; assay type: cell-based, human; conditions: doxycycline-induced membrane TRAIL expression, 300 ng/ml doxycycline
Experimental: The SK-N-AS cell line with inducible TRAIL expression was generated by cloning human TRAIL from pUNO1-hTRAILa vector (InvivoGen) into the lentiviral pINDUCER (pIND) system (Invitrogen). Expression of the TRAIL transgene was induced by the addition of doxycycline to the culture medium at a final concentration of 300 ng/ml. SH-SY5Y-GFP, IMR-GFP and SH-EP2-GFP were generated by lentiviral (pLenti, Invitrogen) transduction of turboGFP (SHC003, Sigma) and SH-EP2-RFP by lentiviral (pLenti, invitrogen) transduction of near-infrared fluorescent protein NirFP (Evrogen). […]
To determine the effect of doxycycline-induced TRAIL expression on SK-N-AS cells, 150.000 SK-N-AS-TRAIL cells were seeded in triplicate in 6 well/plates in 2 ml medium supplemented with or without 300 ng/ml doxycycline. Cell number was determined using a coulter counter (Beckman) at every 3rd or 4th day and cells were reseeded at similar cell number as at the start until the end of the experiment. The proliferation factor was defined as the ratio of the cells counted and the cells plated.
Sub-G1 fractions were determined after 72 hours treatment with 300 ng/ml doxycycline. […] After 1 hour incubation, DNA content of the nuclei was analysed using a Accuri C6 flow cytometer (BD biosciences). The cell cycle distribution and apoptotic sub G1 fraction was determined using BD Accuri C6 software.

SK-N-AS-TRAIL xenografts = test: SK-N-AS-TRAIL xenograft tumour growth; assay type: in vivo, NMRI-Foxn1nu/nu mice; conditions: TRAIL induced by doxycycline, established tumours 200 mm^3, five-week doxycycline stimulation
Experimental: For the SK-N-AS-TRAIL xenograft experiments, 1×10^6 cells were suspended in 200 μl of a 50% Matrigel solution in PBS and subcutaneously injected in NMRI-Foxn1nu/nu mice. After tumour outgrowth to around 200-250 mm^3, mice were randomized to control or treatment groups. The DOX group was provided drinking water with 200 μg/ml doxycycline. DOX-containing water was refreshed weekly. Control mice received regular drinking water ad lib. Mice were screened regularly to follow tumour formation and were sacrificed before tumour reached 1500 mm^3. All animal experiments were conducted under the institutional guidelines and according to the law and approved in DAG155 by the AMC animal ethics committee.

IMR32 cells (ADRN-type) = test: 3D spheroid co-culture of SK-N-AS-TRAIL cells with IMR32-GFP cells; assay type: cell-based, human; conditions: doxycycline-induced TRAIL expression, 48 hours, 3D model
Experimental: as §1

[3] = system: SK-N-SH (ALK-F1174L) and NBL-W (ALK-R1275L) cell lines; test: Cell viability (MTT) assay, cell lines with heterogeneous MES and ADRN composition; assay type: cell-based, human; conditions: Lorlatinib-only or TRAIL-only (100 ng/ml), 120 hours
Experimental: Seeding densities were optimized for each cell line so that the control, non-treated cells would reach 70-80% confluence by the end of the experiment. […] Metabolic activity was measured by 3-(4,5-dimethylthiazol-2-yl)-2,5-diphenyltetrazolium bromide (MTT) assay, according to the manufacturer's instructions with minor modifications. Sextuple or triplicate measurements were used for each experimental condition. Two-sided t-tests assuming equal variance were used to determine significance. Experiments were repeated at least twice.

[4] = system: mixed culture of SH-SY5Y-GFP (ADRN-type) and SH-EP2-RFP (MES-type) cells; test: Flow cytometry of mixed cultures of SH-EP2-RFP and SH-SY5Y-GFP cells; assay type: cell-based, human; conditions: 120 hours, relative to DMSO control
Experimental: GFP and RFP labelled cells were plated at given densities (see Figure description), collected by trypsin treatment, washed twice with FACS buffer and analysed using flow cytometer (BD biosciences) and BD Accuri C6 software.

Molecule | Sensitivity to Alectinib (cell survival) ([1]; isogenic pair with mutant ALK, MES-type cells, 120 hours) | Sensitivity to Alectinib (cell survival) ([2]; isogenic pair with mutant ALK, ADRN-type cells, 120 hours) | Sensitivity to TRAIL (cell viability) ([1]; four isogenic pairs, MES cells, 72 hours of TRAIL treatment) | Tumour growth response during treatment (SH-SY5Y xenografts) | Killing of co-cultured MES-type SH-EP2 cells (SH-EP2 cells (MES-type)) | Apoptosis of SK-N-AS-TRAIL cells (SK-N-AS-TRAIL cells) | Tumour response of established tumours (SK-N-AS-TRAIL xenografts) | Killing of co-cultured ADRN-type IMR32 cells (IMR32 cells (ADRN-type)) | Sensitivity to TRAIL (cell viability) ([2]; four isogenic pairs, ADRN cells, 72 hours of TRAIL treatment) | Cell killing by single-agent treatment [3] | Effect on ADRN population (SH-SY5Y-GFP) ([4]; Lorlatinib 5 μM or TRAIL 100 ng/ml) | Effect on MES population (SH-EP2-RFP) ([4]; TRAIL 100 ng/ml)
CCc1cc2c(cc1N1CCC(N3CCOCC3)CC1)C(C)(C)c1[nH]c3cc(C#N)ccc3c1C2=O [Alectinib, reference compound] | resistance | preferential killing |  |  |  |  |  |  |  |  |  | 
TRAIL: TNF-related apoptosis-inducing ligand; recombinant soluble human TRAIL (Peprotech; His-tagged for in vivo); also doxycycline-induced transgene in SK-N-AS-TRAIL cells (protein, UniProt P50591 39-281, looked up, extracellular domain His tag, TNF-related apoptosis-inducing ligand; recombinant soluble human TRAIL (Peprotech; His-tagged for in vivo); also doxycycline-induced transgene in SK-N-AS-TRAIL cells) extracellular domain: TNELKQMQDKYSKSGIACFLKEDDSYWDPNDEESMNSPCWQVKWQLRQLVRKMILRTSEETISTVQEKQQNISPLVRERGPQRVAAHITGTRGRSNTLSSPNSKNEKALGRKINSWESSRSGHSFLSNLHLRNGELVIHEKGFYYIYSQTYFRFQEEIKENTKNDKQMVQYIYKYTSYPDPILLMKSARNSCWSKDAEYGLYSIYQGGIFELKENDRIFVSVTNEHLIDMDHEASFFGAFLVG |  |  | efficiently killed | did not inhibit tumour growth | killed | apoptosis of a large proportion of the cells | complete regression | not | unaffected | partly killed | reduction of the ADRN population | strongly reduced
